Results taken from the DeepSol protein solubility set.

test: soluble on expression in E. coli; label from the status in PepcDB or PDB records

Sequence	soluble on expression in E. coli
MEVYSKLRAPPSSRMILRLDGRGFHRLTESLDFDRPYDEAFRDLMIRTCLDLMEEFSPSLIYTFSDEINVLLDSVPFAGRVEKLDSVFSGFASSSFTRGALEAGFSPVKPVSFDCRVIPISSDIVPEYFRSRQDESWRNCLNSYAYWTLRREVGARRAAERLRGLKSDSLHDLLFERGVNISRVPAWQRRGVGVYRVPHRVRGYNPIRDEEVSAVRMRVKVDLELPLFTDEFFEGLMRLEHHHHHH	soluble
MFRSSFCKNLENATSHLRLEPDWPSILLICDEINQKDVTPKNAFAAIKKKMNSPNPHSSCYSLLVLESIVKNCGAPVHEEVFTKENCEMFSSFLESTPHENVRQKMLELVQTWAYAFRSSDKYQAIKDTMTILKAKGHTFPELREADAMFTADTAPNWADGRVCHRCRVEFTFTNRKHHCRNCGQVFCGQCTAKQCPLPKYGIEKEVRVCDGCFAALQRG	soluble
HMSNPLGELVKALEKLSFKPSDVRIYSLLLERGGMRVSEIARELDLSARFVRDRLKVLLKRGFVRREIVEKGWVGYIYSAEKPEKVLKEFKSSILGEIERIEKMFTDGS	soluble
MPSLSKEAALVHDALVARGLETPLRPPMDELDNETRKSLIAGHMTEIMQLLNLDLSDDSLMETPHRIAKMYVDEIFAGLDYANFPKITLIENKMKVDEMVTVRDITLTSTCEHHFVTIDGKATVAYIPKDSVIGLSKINRIVQFFAQRPQVQERLTQQILTALQTLLGTNNVAVSIDAVHYCVKARGIRDATSATTTTSLGGLFKSSQNTRQEFLRAVRHHP	not soluble
MTYCLAIKVDQGLVFASDSRTHAGVDYASVYSKMYRFDLHSDRLMIVLAAGNLATTQAVINLIRRDLENPGALYNLNTVAYLYDAASYIGETSVRVQEQHASAMQRCGISGEASFILGGQIQGQPPEIYLIYPQGNYITVSPDNPYLQIGETKYGKPILDRMIAPATTLEDAARCALVSIDSTMRSNISVGPPVEVAIYRRNSFVVGHYLHLDYSSPLYALIQKQWAEGIRNAFTLLPRFEWEDGGSIGSEQSQLEHHHHHH	not soluble
EVQDVNDSSWKEFVLESEVPVMVDFWAPWCGPCKLIAPVIDELAKEYSGKIAVYKLNTDEAPGIATQYNIRSIPTVLFFKNGERKESIIGAVPKSTLTDSIEKYL	soluble
ISASEDMFEDEDLIPRQNVVITLTHHGYIKRLPISTYRSQKRGGRGIQGMGTNEDDFVQHLFTTNSHHTILFFTNKGKVYRLKGYEIPELGRTAKGIPIINLLQIEQDEYISTIIPIEEFTED	soluble
MGSDKIHHHHHHMMGYNLTTPFLIYQWNFPMFPWDQIDTVLLDMDGTLLDLHFDNHFWLSLVPGTLSRMHGISAEAATSHVRAAYDKVAGTLEWYCLDYWERELGLDIMALHRTLVDRIQLRQDSMPFLTALADAGKRRILLTNAHPNSLALKLEHTELASGLDEMLSSHQTGHPKESPLFWQAVFARFELNPRRCLFIDDSEAILLAAKHAGVGFQLGISNPDSQQPNKVFHDFPAIHDYRLLLNE	not soluble
AHHHHHHGSKIKVGINGYGTIGKRVAYAVTKQDDMELIGVTKTKPDFEAYRAKELGIPVYAASEEFLPRFEKAGFEVEGTLNDLLEKVDIIVDATPGGMGEKNKQLYEKAGVKAIFQGGEKAEVAQVSFVAQANYEAALGKDYVRVVSCNTTGLVRTLNAIKDYVDYVYAVMIRRAADPNDIKRGPINAIKPSVTIPSHHGPDVQTVIPINIETSAFVVPTTIMHVHSIMVELKKPLTREDVIDIFENTTRVLLFEKEKGFESTAQLIEFARDLHREWNNLYEIAVWKESINVKGNRLFYIQAVHQESDVIPENIDAIRAMFEIAEKWESIKKTNKSLGILK	soluble
CSCSPVHPQQAFCNADIVIRAKAVNKKEVDSGNDIYGNPIKRIQYEIKQIKMFKGPDQDIEFIYTAPAAAVCGVSLDIGGKKEYLIAGKAEGNGNMHITLCDFIVPWDTLSATQKKSLNHRYQMGCECKITRCPMIPCYISSPDECLWMDWVTEKNINGHQAKFFACIKRSDGSCAWYRGAAPP	soluble
MGSDKIHHHHHHSHKYTAITPGVEWLDTNNEKINAHGGGILYHEGIYYWYGECKSDSTYWNPNVPGWECYRTEAGGVNCYSSKDLLNWKYEGLVLQPEISDTQSDLHPSKVLERPKVIYNDKTKKFVMWLHVDSDDYNKAAAGVAVSDSPTGVFTYLGSMHPNGQISRDMTLFKDDDGKAYHIYSSEQNSTLYISLLSDDYLKPSGTFTRNFAGKFREAPAVFKHNGLYYVISSGCTGWSPNEAEYAVATQILGPWTVKGNPCVGKDADKTFYGQSTHVLPIQGKKDAYIAMFDKWNKTDLIHSTYIWLPIQFREDGSMAIQWLDSWSPDTYEF	not soluble
MMSLLAVGLVFGLAACSGTSDAKGKIVISGKKFTEQVILTHLLAEYVKANTDLDVEVKDSLGGAFMLQQAIENGDVDMYVEYTGTGYLNILKQPYDPAKTPEQIYNETKKLYKEKYNIAWLKPLGFNNTYALAMRRDLAEKLGVKTYSDLAKHSSSLTFGSDAEFFERSDGYDGLVDTYGFQFKKKVTIDPDLQYEAAKNSEIDVITAYTTDARIKKYDLVVLKDDKQYFPPYHAVPIIRQEVLDANPGLEKKLNKLANILTDEKMMELNGQVNLEGKQPREVALDFLKAEGLID	not soluble
MDDATEQEVFNRMQMTQFEEKRFELRETCPKCHQILSSELSRLWHQFVHMDAYNGFLDGKFQIQLPDFEFVRSNVIPCPFSTCSLLFLDLIDARFHYLLEHQSCQLFCCGVRFSDYKTALEHLQGTGSVETEAWDQQKHFLKPVYICNCCNRTWSSRSEYVAHLHGRDHMCPDPVCKYIFETNEKCIRHFFEQHYKHLFLDSRHLLLNYKDHMCVPHVNADFGTTRGFRATWQARIVNFLIEKS	not soluble
MRDIVIIGHKAKTSGDFSLNDLPGSAGRMDILCRCVSSALFLSFGMRRDVNVHLLLLGEPDPGKIIRFEGLHLRYLNPDERSSGSLIQKALLKNAAGQDIRSTPGVWTRTGDLNSLLASFEGRTLLYLREDGKDFREIAREIQDPVFILGDHTGVTEEEEKQLLEAGAQVISVGPISLHSNHCITLIHNELDRAEAERGEIPGGNISRPED	not soluble
MSLKEYTRPLEQGIDSDKNIFSVLEERVERTPDDNLVEYKNAQGEWAAFTAAEFKNKVVALAKGLIARGVMPGDSVSIIAHTCWQWTALDVAIMSIGALTVPVYETNSPAQVKMIFNDANVKMAFAEDDFQRDKIESVRDQCPDLGDVYVIGLGAIDTIIEYGRAVSDAEFLEREQAVKGSDLATIVYTSGSTGTPKGVELTHANFVFITYSGVNSMPDIAMKPNRRLLLFLPLAHVFARYMQFFCFAGNVSLGLSSNLKTILADFKAFKPTFILAVPRIFEKIYNAASQKAGAGFKGRVFADATQTACDWSHAQQSGGSIPLALNAKHALYNKLVYSSIMEVFGGHVEYAVSGGAPLDSSIAHFFNGVGLSLLEGYGMTETCAPSSVNPTEGYKIGTIGLPLQGVTMGVDEEGELCIKSPAVCAGYHNNPDVTKQQIVDGWLHTGDLGSIDDDGFVSIVGRKKDLIITAGGKNVSPCEMEASIMTSPVVSQCVMIGDRKPFIAAIISLDLAETNLWLESKGAEQVADLDEASKNPIVRAEVERAVNKANELASRAESIRKFEIVPDEFTEENGLVTPSMKARRQAVVEHYRTLIDKVIYVPRKPAAHAEEGHHHHHH	soluble
MISNNTRRVYRISFSFFEQYCLEHNLQSLPADPRSIISFIGHQKELLQASTGMQLSKQTLTTRIAAIRFYHIQAGFPTPTEHPQVIRVMRGLSRNHHRLVQDYDQQPLEHHHHHH	not soluble
MAHHHHHHMNNSSAVATGDNPQLQKPMIYKNRARSIVHRSVRNGSENQLTEQANGTSIRDKIRRLFSSKHDQTIRDMQKTKLTKNKSIQEQEPSERNVDGFLSTDHQSVEWQPVYRETCKIKLPVEEGATKIAMPEEVLDDWVHSQHKISQQLGRRKGGEFVQDNQSLGDHDQGDDLLELGGDCLLGKNASRKSCNLKSTEDQYSKFKYYYNYYLVDEYLESLAASPNKELDATGLDEHGQLYDNVSLNARPIIVSKQRLESGVPYDPSKLLQ	not soluble
MPLAKDLLHPLPAEEKRKHKLKRLVQHPNSYFMDVKCPGCYRITTVFSHAQGVVVCAGCATILCQPTGGRAKLTEGCSFRRKPQLEHHHHHH	not soluble
